Measured values: IntAct's records for PubMed 21685921

B1: Regulator of G-protein signaling 18 (Homo sapiens), Q9NS28 (parent)
chain: METTLLFFSQINMCESKEKTFFKLIHGSGKEETSKEAKIRAKEKRNRLSLLVQKPEFHEDTRSSRSGHLAKETRVSPEEAVKWGESFDKLLSHRDGLEAFTRFLKTEFSEENIEFWIACEDFKKSKGPQQIHLKAKAIYEKFIQTDAPKEVNLDFHTKEVITNSITQPTLHSFDAAQSRVYQLMEQDSYTRFLKSDIYLDLMEGRPQRPTNLRRRSRSFTCNEFQDVQSDVAIWL
B2: Regulator of G-protein signaling 16 (Homo sapiens), O15492 (parent)
chain: MCRTLAAFPTTCLERAKEFKTRLGIFLHKSELGCDTGSTGKFEWGSKHSKENRNFSEDVLGWRESFDLLLSSKNGVAAFHAFLKTEFSEENLEFWLACEEFKKIRSATKLASRAHQIFEEFICSEAPKEVNIDHETHELTRMNLQTATATCFDAAQGKTRTLMEKDSYPRFLKSPAYRDLAAQASAASATLSSCSLDEPSHT
B3: Regulator of G-protein signaling 17 (Homo sapiens), Q9UGC6 (parent)
chain: MRKRQQSQNEGTPAVSQAPGNQRPNNTCCFCWCCCCSCSCLTVRNEERGENAGRPTHTTKMESIQVLEECQNPTAEEVLSWSQNFDKMMKAPAGRNLFREFLRTEYSEENLLFWLACEDLKKEQNKKVIEEKARMIYEDYISILSPKEVSLDSRVREVINRNLLDPNPHMYEDAQLQIYTLMHRDSFPRFLNSQIYKSFVESTAGSSSES
B4: Regulator of G-protein signaling 4 (Homo sapiens), P49798 (parent)
chain: MCKGLAGLPASCLRSAKDMKHRLGFLLQKSDSCEHNSSHNKKDKVVICQRVSQEEVKKWAESLENLISHECGLAAFKAFLKSEYSEENIDFWISCEEYKKIKSPSKLSPKAKKIYNEFISVQATKEVNLDSCTREETSRNMLEPTITCFDEAQKKIFNLMEKDSYRRFLKSRFYLDLVNPSSCGAEKQKGAKSSADCASLVPQCA

Variants of: B1
Conditions: with gnao_rat Gnao1, P59215
Chain of gnao_rat Gnao1, P59215 (P59215 whole entry): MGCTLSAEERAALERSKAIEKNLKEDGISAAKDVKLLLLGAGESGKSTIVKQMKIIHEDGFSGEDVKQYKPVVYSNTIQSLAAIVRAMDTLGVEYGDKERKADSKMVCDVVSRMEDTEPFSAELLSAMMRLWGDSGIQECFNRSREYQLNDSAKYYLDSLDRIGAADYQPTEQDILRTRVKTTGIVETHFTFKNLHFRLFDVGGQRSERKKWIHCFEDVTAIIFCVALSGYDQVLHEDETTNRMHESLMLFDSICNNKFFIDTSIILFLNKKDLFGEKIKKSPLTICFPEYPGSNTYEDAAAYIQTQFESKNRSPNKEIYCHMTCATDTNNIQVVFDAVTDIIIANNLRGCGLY

Variant	effect of a mutation on the interaction
Q186K	increasing interaction
K141E;H156E;K158R	increasing interaction
K141E;H156E;K158R;Q186K	increasing interaction
H156E;K158R	increasing interaction

Variants of: B2
Conditions: with gnao_rat Gnao1, P59215

Variant	effect of a mutation on the interaction
E125A;E129A;K173A	decreasing interaction
E90A	decreasing interaction
E125A;E129A	decreasing interaction
E129A	decreasing interaction

Variants of: B3
Conditions: with gnao_rat Gnao1, P59215

Variant	effect of a mutation on the interaction
I143S;L144E;S145A;S150N;H183E;R184K;N192K	increasing interaction
I143S;L144E;S145A;S150N;N192K	increasing interaction

Variants of: B4
Conditions: with gnao_rat Gnao1, P59215

Variant	effect of a mutation on the interaction
R134A;R166A	decreasing interaction
E126A;R134A;R166A	disrupting interaction
N128S	disrupting interaction
R134A	decreasing interaction
